In article PMC5021511 (Methods in cell biology, 2016):

Biological target: the molecule itself
Assay: FRET or BRET

B1: Cdc11(E294C)-capped and otherwise Cys-less septin heterooctamer, labeled with AF555-maleimide (donor) or AF647-maleimide (acceptor) (complex, S. cerevisiae)
chain 1: MSGIIDASSALRKRKHLKRGITFTVMIVGQSGSGRSTFINTLFGQQVVDTSTTILLPTDTSTEIDLQLREETVELEDDEGVKIQLNIIDTPGFGDSLDNSPSFEIISDYIRHQYDEILLEESRVRRNPRFKDGRVHAALYLINPTGHGLKEIDVEFIRQLGSLVNIIPVISKSDSLTRDELKLNKKLIMEDIDRWNLPIYNFPFDEDEISDEDYETNMYLRTLLPFAIIGSNEVYEMGGDVGTIRGRKYPWGILDVEDSSISDFVILRNALLISHLHDLKNYTHEILYERYRTCALSGESVAAESIRPNLTKLNGSSSSSTTTRRNTNPFKQSNNINNDVLNPASDMHGQSTGENNETYMTREEQIRLEEERLKAFEERVQQELLLKRQELLQREKELREIEARLEKEAKIKQEE
chain 2: MSAATATAAPVPPPVGISNLPNQRYKIVNEEGGTFTVMLAGESGLGKTTFINTLFQTVLKRADGQQHRQEPIRKTVEIDITRALLEEKHFELRVNVIDTPGFGDNVNNNKAWQPLVDFIDDQHDSYMRQEQQPYRTKKFDLRVHAVLYFIRPTGHGLKPIDIETMKRLSTRANLIPVIAKADTLTAQELQQFKSRIRQVIEAQEIRIFTPPLDADSKEDAKSGSNPDSAAVEHARQLIEAMPFAIVGSEKKFDNGQGTQVVARKYPWGLVEIENDSHSDFRKLRALLLRTYLLDLISTTQEMHYETYRRLRLEGHENTGEGNEDFTLPAIAPARKLSHNPRYKEEENALKKYFTDQVKAEEQRFRQWEQNIVNERIRLNGDLEEIQGKVKKLEEQVKSLQVKKSHLK
chain 3: MSLKEEQVSIKQDPEQEERQHDQFNDVQIKQESQDHDGVDSQYTNGTQNDDSERFEAAESDVKVEPGLGMGITSSQSEKGQVLPDQPEIKFIRRQINGYVGFANLPKQWHRRSIKNGFSFNLLVVGPDGIGKTTLMKTLFNNDDIEANLVKDYEEELANDQEEEEGQGEGHENQSQEQRHKVKIKSYESVIEENGVKLNLNVIDTEGFGDFLNNDQKSWDPIIKEIDSRFDQYLDAENKINRHSINDKRIHAVLYFIEPTGHYLKPLDLKFMQSVYEKVNLIPVIAKSDILTDEEILSFKKTIMNQLIQSNIELFKPPIYSNDDAENSHLSERLFSSLPYAVIGSNDIVENYSGNQVRGRSYPWGVIEVDNDNHSDFNLLKNLLIKQFMEELKERTSKILYENYRSSKLAKLGIKQDNSVFKEFDPISKQQEEKTLHEAKLAKLEIEMKTVFQQKVSEKEKKLQKSETELFARHKEMKEKLTKQLKALEDKKKQLELSINSASPNVNHSPVPTKKKGFLR
chain 4: MDPLSSVQPASYVGFDTITNQIEHRLLKKGFQFNIMVVGQSGLGKSTLINTLFASHLIDSATGDDISALPVTKTTEMKISTHTLVEDRVRLNINVIDTPGFGDFIDNSKAWEPIVKYIKEQHSQYLRKELTAQRERFITDTRVHAILYFLQPNGKELSRLDVEALKRLTEIANVIPVIGKSDTLTLDERTEFRELIQNEFEKYNFKIYPYDSEELTDEELELNRSVRSIIPFAVVGSENEIEINGETFRGRKTRWSAINVEDINQSDFVYLREFLIRTHLQDLIETTSYIHYEGFRARQLIALKENANSRSSAHMSSNAIQR
modifications: Alexa Fluor 555 maleimide (donor batch) or Alexa Fluor 647 maleimide (acceptor batch) on C294
B1 showed a Kd of 24.3 ± 13.7 nM.
